# From the supplement of paper PMC9112550, “Optimization of the antimicrobial peptide Bac7 by deep mutational scanning” (BMC Biology, 2022)
# Test system: Escherichia coli TOP10
# Experiment: shrunken log2 fold change of peptide-encoding DNA abundance (4.5 h post-induction vs induction); higher = less antimicrobial activity (less host growth inhibition)
# Conditions: time post-induction: 4.5 h; library: site-saturation at positions 5, 18, 19, 20
# 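Also: peptides expressed intracellularly from a pBAD plasmid library in pooled LB shake-flask culture, induced with 0.3% L-arabinose, DNA abundance read by NGS, three biological replicates, DESeq2 with apeglm shrinkage.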
sequence,measurement,value
RRIRGRPPRLPRPRPRPEHNPRP,shrunken log2 fold change,0.327
RRIRDRPPRLPRPRPRPSTEPRP,shrunken log2 fold change,0.301
RRIRRRPPRLPRPRPRPSNIPRP,shrunken log2 fold change,-0.528
RRIRSRPPRLPRPRPRPCQTPRP,shrunken log2 fold change,0.131
RRIRPRPPRLPRPRPRPWNRPRP,shrunken log2 fold change,0.122
RRIRPRPPRLPRPRPRPLNEPRP,shrunken log2 fold change,-0.348
RRIRNRPPRLPRPRPRPEWKPRP,shrunken log2 fold change,0.0303
RRIRSRPPRLPRPRPRPGYMPRP,shrunken log2 fold change,-0.148
RRIRLRPPRLPRPRPRPTIDPRP,shrunken log2 fold change,-0.521
RRIRGRPPRLPRPRPRPLMWPRP,shrunken log2 fold change,0.4
RRIRIRPPRLPRPRPRPDGGPRP,shrunken log2 fold change,-0.446
RRIRCRPPRLPRPRPRPVYGPRP,shrunken log2 fold change,-0.747
RRIRSRPPRLPRPRPRPVCRPRP,shrunken log2 fold change,0.199
RRIRCRPPRLPRPRPRPFIVPRP,shrunken log2 fold change,-0.575
RRIRHRPPRLPRPRPRPMYKPRP,shrunken log2 fold change,-0.138
RRIRRRPPRLPRPRPRPRMWPRP,shrunken log2 fold change,0.431
RRIRVRPPRLPRPRPRPRFEPRP,shrunken log2 fold change,0.376
RRIRKRPPRLPRPRPRPHRDPRP,shrunken log2 fold change,-0.136
RRIRNRPPRLPRPRPRPPKDPRP,shrunken log2 fold change,0.131
RRIRNRPPRLPRPRPRPQELPRP,shrunken log2 fold change,-0.14
RRIRMRPPRLPRPRPRPSAKPRP,shrunken log2 fold change,0.0449
RRIRRRPPRLPRPRPRPKQRPRP,shrunken log2 fold change,0.288
RRIRARPPRLPRPRPRPWVKPRP,shrunken log2 fold change,0.0825
RRIRLRPPRLPRPRPRPRTCPRP,shrunken log2 fold change,-0.258
RRIRYRPPRLPRPRPRPLIKPRP,shrunken log2 fold change,-0.386
RRIRCRPPRLPRPRPRPDWQPRP,shrunken log2 fold change,-0.0213
RRIRKRPPRLPRPRPRPWVPPRP,shrunken log2 fold change,0.481
RRIRYRPPRLPRPRPRPCRNPRP,shrunken log2 fold change,-0.072
RRIRFRPPRLPRPRPRPDHAPRP,shrunken log2 fold change,-0.102
RRIRPRPPRLPRPRPRPDMIPRP,shrunken log2 fold change,0.249
RRIRERPPRLPRPRPRPMIWPRP,shrunken log2 fold change,-0.21
RRIRFRPPRLPRPRPRPKQHPRP,shrunken log2 fold change,-0.176
RRIRARPPRLPRPRPRPMEPPRP,shrunken log2 fold change,0.0999
RRIRSRPPRLPRPRPRPHVAPRP,shrunken log2 fold change,-0.136
RRIRLRPPRLPRPRPRPAEPPRP,shrunken log2 fold change,0.188
RRIRCRPPRLPRPRPRPTTGPRP,shrunken log2 fold change,-0.0721
RRIRKRPPRLPRPRPRPQCWPRP,shrunken log2 fold change,0.00452
RRIRDRPPRLPRPRPRPGYFPRP,shrunken log2 fold change,-1.25
RRIRHRPPRLPRPRPRPQIKPRP,shrunken log2 fold change,-0.889
RRIRHRPPRLPRPRPRPKDNPRP,shrunken log2 fold change,-0.201
RRIRRRPPRLPRPRPRPWSTPRP,shrunken log2 fold change,-0.0543
RRIRFRPPRLPRPRPRPDTAPRP,shrunken log2 fold change,-0.22
RRIRPRPPRLPRPRPRPFYAPRP,shrunken log2 fold change,0.02
RRIRDRPPRLPRPRPRPNTCPRP,shrunken log2 fold change,-0.0241
RRIRDRPPRLPRPRPRPYMFPRP,shrunken log2 fold change,-0.244
RRIRKRPPRLPRPRPRPCGAPRP,shrunken log2 fold change,0.45
RRIRGRPPRLPRPRPRPMSDPRP,shrunken log2 fold change,0.34
RRIRKRPPRLPRPRPRPSYAPRP,shrunken log2 fold change,0.0314
RRIRARPPRLPRPRPRPSLIPRP,shrunken log2 fold change,-0.0273
RRIRNRPPRLPRPRPRPVHLPRP,shrunken log2 fold change,-0.138
RRIRNRPPRLPRPRPRPKDWPRP,shrunken log2 fold change,0.0256
RRIRARPPRLPRPRPRPGFLPRP,shrunken log2 fold change,0.426
RRIRCRPPRLPRPRPRPVAHPRP,shrunken log2 fold change,-0.277
RRIRGRPPRLPRPRPRPGLLPRP,shrunken log2 fold change,0.791
RRIRTRPPRLPRPRPRPKMSPRP,shrunken log2 fold change,0.116
RRIRLRPPRLPRPRPRPGYRPRP,shrunken log2 fold change,-0.16
RRIRPRPPRLPRPRPRPAQMPRP,shrunken log2 fold change,0.181
RRIRERPPRLPRPRPRPEHAPRP,shrunken log2 fold change,-0.0115
RRIRQRPPRLPRPRPRPQGAPRP,shrunken log2 fold change,-0.0289
RRIRRRPPRLPRPRPRPLHNPRP,shrunken log2 fold change,0.188
RRIRDRPPRLPRPRPRPQHYPRP,shrunken log2 fold change,-0.856
RRIRPRPPRLPRPRPRPAMAPRP,shrunken log2 fold change,0.388
RRIRPRPPRLPRPRPRPRYIPRP,shrunken log2 fold change,-0.602
RRIRFRPPRLPRPRPRPPINPRP,shrunken log2 fold change,-0.406
RRIRWRPPRLPRPRPRPSLYPRP,shrunken log2 fold change,-0.402
RRIRHRPPRLPRPRPRPGCGPRP,shrunken log2 fold change,0.417
RRIRGRPPRLPRPRPRPKRCPRP,shrunken log2 fold change,0.788
RRIRQRPPRLPRPRPRPEPNPRP,shrunken log2 fold change,-0.0098
RRIRERPPRLPRPRPRPMTLPRP,shrunken log2 fold change,-0.000163
RRIRHRPPRLPRPRPRPTLDPRP,shrunken log2 fold change,0.0219
RRIRPRPPRLPRPRPRPRAKPRP,shrunken log2 fold change,0.692
RRIRPRPPRLPRPRPRPKLQPRP,shrunken log2 fold change,-0.00543
RRIRLRPPRLPRPRPRPLNEPRP,shrunken log2 fold change,-0.0224
RRIRPRPPRLPRPRPRPDDPPRP,shrunken log2 fold change,-0.0693
RRIRNRPPRLPRPRPRPILHPRP,shrunken log2 fold change,-0.684
RRIRARPPRLPRPRPRPNNFPRP,shrunken log2 fold change,-0.236
RRIRVRPPRLPRPRPRPQWVPRP,shrunken log2 fold change,-0.222
RRIRARPPRLPRPRPRPRQYPRP,shrunken log2 fold change,-0.294
RRIRHRPPRLPRPRPRPERIPRP,shrunken log2 fold change,-0.0507
RRIRGRPPRLPRPRPRPPAYPRP,shrunken log2 fold change,0.532
RRIRTRPPRLPRPRPRPDGQPRP,shrunken log2 fold change,0.0697
RRIRFRPPRLPRPRPRPHKVPRP,shrunken log2 fold change,-0.196
RRIRARPPRLPRPRPRPQKFPRP,shrunken log2 fold change,-0.509
RRIRCRPPRLPRPRPRPGLQPRP,shrunken log2 fold change,0.109
RRIRQRPPRLPRPRPRPGEHPRP,shrunken log2 fold change,-0.0241
RRIRLRPPRLPRPRPRPTLEPRP,shrunken log2 fold change,-0.244
RRIRRRPPRLPRPRPRPFMKPRP,shrunken log2 fold change,-0.213
RRIRDRPPRLPRPRPRPCEAPRP,shrunken log2 fold change,-0.0794
RRIRMRPPRLPRPRPRPWVLPRP,shrunken log2 fold change,0.0155
RRIRTRPPRLPRPRPRPFYYPRP,shrunken log2 fold change,-0.55
RRIRWRPPRLPRPRPRPMIKPRP,shrunken log2 fold change,-0.353
RRIRARPPRLPRPRPRPVGRPRP,shrunken log2 fold change,0.691
RRIRSRPPRLPRPRPRPHPWPRP,shrunken log2 fold change,-0.0172
RRIRNRPPRLPRPRPRPSTHPRP,shrunken log2 fold change,-0.274
RRIRLRPPRLPRPRPRPNFLPRP,shrunken log2 fold change,-0.153
RRIRERPPRLPRPRPRPYRSPRP,shrunken log2 fold change,-1.42
RRIRWRPPRLPRPRPRPFYVPRP,shrunken log2 fold change,-0.348
RRIRSRPPRLPRPRPRPAFAPRP,shrunken log2 fold change,0.414
RRIRARPPRLPRPRPRPSKRPRP,shrunken log2 fold change,0.0155
RRIRFRPPRLPRPRPRPYLSPRP,shrunken log2 fold change,-1.86
RRIRRRPPRLPRPRPRPPVWPRP,shrunken log2 fold change,0.328
RRIRLRPPRLPRPRPRPRLFPRP,shrunken log2 fold change,0.17
RRIRQRPPRLPRPRPRPGDCPRP,shrunken log2 fold change,-0.0893
RRIRGRPPRLPRPRPRPDCPPRP,shrunken log2 fold change,0.22
RRIRRRPPRLPRPRPRPRSNPRP,shrunken log2 fold change,0.224
RRIRTRPPRLPRPRPRPPRAPRP,shrunken log2 fold change,0.786
RRIRTRPPRLPRPRPRPWHQPRP,shrunken log2 fold change,-0.0236
RRIRERPPRLPRPRPRPSGDPRP,shrunken log2 fold change,-0.253
RRIRTRPPRLPRPRPRPMCHPRP,shrunken log2 fold change,-0.228
RRIRLRPPRLPRPRPRPKQWPRP,shrunken log2 fold change,0.176
RRIRSRPPRLPRPRPRPRKKPRP,shrunken log2 fold change,0.362
RRIRPRPPRLPRPRPRPWHLPRP,shrunken log2 fold change,-0.233
RRIRFRPPRLPRPRPRPLNGPRP,shrunken log2 fold change,0.073
RRIRPRPPRLPRPRPRPARCPRP,shrunken log2 fold change,0.67
RRIRPRPPRLPRPRPRPNNAPRP,shrunken log2 fold change,-0.19
RRIRTRPPRLPRPRPRPHLNPRP,shrunken log2 fold change,-0.358
RRIRARPPRLPRPRPRPTRDPRP,shrunken log2 fold change,0.759
RRIRMRPPRLPRPRPRPDEFPRP,shrunken log2 fold change,1.49
RRIRPRPPRLPRPRPRPGCDPRP,shrunken log2 fold change,0.309
RRIRMRPPRLPRPRPRPLKEPRP,shrunken log2 fold change,0.701
RRIRTRPPRLPRPRPRPCCGPRP,shrunken log2 fold change,0.635
RRIRYRPPRLPRPRPRPMTEPRP,shrunken log2 fold change,-0.0202
RRIRDRPPRLPRPRPRPTGEPRP,shrunken log2 fold change,0.119
RRIRCRPPRLPRPRPRPWPVPRP,shrunken log2 fold change,0.215
RRIRQRPPRLPRPRPRPEWIPRP,shrunken log2 fold change,-0.00133
